According to the supplement of paper PMC7125110:
± gives the standard error. Fewer inactive variants are shown than the library holds.

B1: glmS ribozyme (parent)
chain: AUAAAAGCGCCAGAACUACAGAAAUGUAGUUGACGAGGAGGAGGUUUAUCGAAUUUUCGGCGGAUGCCUCCAAA

Assays:
Details in all cases: with glucosamine-6-phosphate
glucosamine-6-phosphate [1] = variants of: B1; test: self-cleavage kobs at 160 uM GlcN6P; higher = faster cleavage; RNA array
Procedure, shortened: (§1)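 Glucosamine-6-phosphate (40 μM to 10 mM) in HEPES/KCl/Mg(OAc)2 buffer was flowed over sequenced MiSeq chips, and tiles were imaged over ~14 h. Barcoded ribozyme variants there had been transcribed in situ by E. coli RNA polymerase and were tracked through a hybridised Cy3 probe at 37 °C. One- or two-exponential decay fits to per-tile medians, normalised to baseline and to non-cleaving reference variants, gave kobs. kcat and KM came from weighted Michaelis–Menten fits across concentrations.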

glucosamine-6-phosphate [2] = variants of: B1; test: self-cleavage kobs at 640 uM GlcN6P; higher = faster cleavage; RNA array
Procedure, shortened: as §1

glucosamine-6-phosphate [3] = variants of: B1; test: self-cleavage kobs at 2500 uM GlcN6P; higher = faster cleavage; RNA array
Procedure, shortened: as §1

glucosamine-6-phosphate [4] = variants of: B1; test: self-cleavage kobs at 10000 uM GlcN6P; higher = faster cleavage; RNA array
Procedure, shortened: as §1

AUAAAAGCGCCAGAACUACAGAAAUGUAGUUGACGAGGAGGAGGUUUAUCGAAAUCUCGGCGGAUACCUUCAAA was tested, and the “self-cleavage kobs at 160 uM GlcN6P” value (glucosamine-6-phosphate [1]) was 7.54e-05 ± 1.5e-05 s⁻¹, the “self-cleavage kobs at 640 uM GlcN6P” value (glucosamine-6-phosphate [2]) was 0.000185 ± 4.1e-05 s⁻¹ and the “self-cleavage kobs at 2500 uM GlcN6P” value (glucosamine-6-phosphate [3]) was 0.000395 ± 9.4e-05 s⁻¹.

AUAAAAGCGCCAGAACUACAGAAAUGUAGUUGACGAGGCGGACGUUUAUCGAAUUUUCGGCGGAUGUCUCCAAA was tested, and the “self-cleavage kobs at 160 uM GlcN6P” value (glucosamine-6-phosphate [1]) was < 1e-05 s⁻¹ and the “self-cleavage kobs at 2500 uM GlcN6P” value (glucosamine-6-phosphate [3]) was < 1e-05 s⁻¹.

With AUAAAAGCGCCAGAACUACAGAAAUGUAGUUGACGAGGAGGAGGUUUAUGGAAUUUUCGGCGGGUGCCUCCAAA the “self-cleavage kobs at 160 uM GlcN6P” value (glucosamine-6-phosphate [1]) was 0.000518 ± 0.00017 s⁻¹, the “self-cleavage kobs at 640 uM GlcN6P” value (glucosamine-6-phosphate [2]) was 0.000105 ± 2.1e-05 s⁻¹ and the “self-cleavage kobs at 10000 uM GlcN6P” value (glucosamine-6-phosphate [4]) was 2.48e-05 ± 9.4e-06 s⁻¹.

AUAAAAGCGCCAGAACUACAGAAAUGUAGUUGACUAGGAGGAGGUUUAUCGAAUUUUAGGCGGAUGCCUCGAAA was tested, and the “self-cleavage kobs at 160 uM GlcN6P” value (glucosamine-6-phosphate [1]) was < 1e-05 s⁻¹ and the “self-cleavage kobs at 640 uM GlcN6P” value (glucosamine-6-phosphate [2]) was < 1e-05 s⁻¹.

AUAAAAGCUCCAGAACUACAGAAAUGUAGUUGACGAGGAGGAGGUUUAUCGAAUUCUCGGCCGAUGCCUCCAAA was tested, and the “self-cleavage kobs at 160 uM GlcN6P” value (glucosamine-6-phosphate [1]) was < 1e-05 s⁻¹ and the “self-cleavage kobs at 640 uM GlcN6P” value (glucosamine-6-phosphate [2]) was < 1e-05 s⁻¹.

In the case of AUAAAAGCGCCAGAACUACAGAAAUGUAGUUGACGAGGAGGUGGUUUAUCGAAUUGUCGGUGGAUGCCUCCAAA, the “self-cleavage kobs at 160 uM GlcN6P” value (glucosamine-6-phosphate [1]) is reported as < 1e-05 s⁻¹.

For AUAAAAGCGACAGAACUACAGAAAUGUAGUUGACGAGGAGUAGGUUUAUCGAAUUUUCGGCGGAUGCGUCCAAA, the “self-cleavage kobs at 160 uM GlcN6P” value (glucosamine-6-phosphate [1]) was < 1e-05 s⁻¹ and the “self-cleavage kobs at 2500 uM GlcN6P” value (glucosamine-6-phosphate [3]) was < 1e-05 s⁻¹.

For AUAAAACCGCCAGAACUACAGAAAUGUAGUUGACGGGGCGGAGGUUUAUCGAAUUUUCGGCGGAUGCCUCCAAA, the “self-cleavage kobs at 160 uM GlcN6P” value (glucosamine-6-phosphate [1]) was < 1e-05 s⁻¹ and the “self-cleavage kobs at 640 uM GlcN6P” value (glucosamine-6-phosphate [2]) was < 1e-05 s⁻¹.

With AUAAAAGCGGCAGAACUACAGAAAUGUAGUUGACGAGGAGGAUGUUUAUAGAAUUUUCGGCGGAUGCCUCCAAA the “self-cleavage kobs at 160 uM GlcN6P” value (glucosamine-6-phosphate [1]) was < 1e-05 s⁻¹ and the “self-cleavage kobs at 2500 uM GlcN6P” value (glucosamine-6-phosphate [3]) was < 1e-05 s⁻¹.

With AUAAAUGCGCCAGAACUACAGAAAUGUAGUUGACGAGGAGGCGGUUUAUCGACUUUUCGGCGGAGGCCUCCAAA the “self-cleavage kobs at 160 uM GlcN6P” value (glucosamine-6-phosphate [1]) was < 1e-05 s⁻¹, the “self-cleavage kobs at 640 uM GlcN6P” value (glucosamine-6-phosphate [2]) was < 1e-05 s⁻¹ and the “self-cleavage kobs at 2500 uM GlcN6P” value (glucosamine-6-phosphate [3]) was < 1e-05 s⁻¹.

With AUAAAAGCGCCAGAAAUACAGAAAUGUAGUUGACGAGGUGGAGGUUUAUCGAAUUUUAGGCGGAAGCCUCCAAA the “self-cleavage kobs at 160 uM GlcN6P” value (glucosamine-6-phosphate [1]) was < 1e-05 s⁻¹, the “self-cleavage kobs at 640 uM GlcN6P” value (glucosamine-6-phosphate [2]) was < 1e-05 s⁻¹ and the “self-cleavage kobs at 2500 uM GlcN6P” value (glucosamine-6-phosphate [3]) was < 1e-05 s⁻¹.

For AUAAAAGCGCCAGAACUACAGAAAUGUAGUUGACGAGGAGGAGGUUUAUCGAUUUUUCGGCUGUUGCCUCCAAA, the “self-cleavage kobs at 160 uM GlcN6P” value (glucosamine-6-phosphate [1]) was < 1e-05 s⁻¹, the “self-cleavage kobs at 640 uM GlcN6P” value (glucosamine-6-phosphate [2]) was < 1e-05 s⁻¹ and the “self-cleavage kobs at 2500 uM GlcN6P” value (glucosamine-6-phosphate [3]) was < 1e-05 s⁻¹.

For AUAAAAGCGCCAGAACUACAGAAAUGUAGUUGACGAGAAGGAGGUUUAUCGAAUUUUCAGCGGAUGCCUCCAAA, the “self-cleavage kobs at 160 uM GlcN6P” value (glucosamine-6-phosphate [1]) was < 1e-05 s⁻¹ and the “self-cleavage kobs at 10000 uM GlcN6P” value (glucosamine-6-phosphate [4]) was < 1e-05 s⁻¹.

For AUAAAAGCGCAAGAACUACAGAAAUGUAGUUGAUCAGGAGGAGGUUUAUCGAAUUUUCGGCGGAUGCCUCCAAA, the “self-cleavage kobs at 160 uM GlcN6P” value (glucosamine-6-phosphate [1]) was < 1e-05 s⁻¹ and the “self-cleavage kobs at 2500 uM GlcN6P” value (glucosamine-6-phosphate [3]) was < 1e-05 s⁻¹.

For AUAAAAGCGCCAGAACUACAGAAAUGUAGUUGACGAGGCGGAGGUUUAUCGAAUUUUCUGAGGAUGCCUCCAAA, the “self-cleavage kobs at 160 uM GlcN6P” value (glucosamine-6-phosphate [1]) was < 1e-05 s⁻¹.

In the case of AUAAAAGCGCCAGAACUACAGAAAUGUAGUUGACGAGGAGAAGGUUUAUAGAAUUUUCGGCGGAUGCCUCCAAA, the “self-cleavage kobs at 160 uM GlcN6P” value (glucosamine-6-phosphate [1]) is reported as < 1e-05 s⁻¹, the “self-cleavage kobs at 640 uM GlcN6P” value (glucosamine-6-phosphate [2]) is reported as < 1e-05 s⁻¹ and the “self-cleavage kobs at 2500 uM GlcN6P” value (glucosamine-6-phosphate [3]) is reported as < 1e-05 s⁻¹. The “self-cleavage kobs at 10000 uM GlcN6P” value (glucosamine-6-phosphate [4]) was < 1e-05 s⁻¹.
